Assays:
HNP-(R14,24orn) (human) = test: AUC
[1] = target: human neutrophil peptide-1 (HNP-1) (human); test: AUC

| Substance | population of oligomer (HNP-(R14,24orn) (human)) | population of oligomer [1] |
| --- | --- | --- |
| HNP-(R14,24orn) (peptide) | 8% | – |
| human neutrophil peptide-1 (HNP-1) | – | 8% |

Source: publication PMC6291843
